Measured values from IntAct's records for PubMed 21423214.

B1: Tyrosine-protein kinase JAK2 (Mus musculus), Q62120 (parent)
chain: MGMACLTMTEMEATSTSPVHQNGDIPGSANSVKQIEPVLQVYLYHSLGQAEGEYLKFPSGEYVAEEICVAASKACGITPVYHNMFALMSETERIWYPPNHVFHIDESTRHDILYRIRFYFPHWYCSGSSRTYRYGVSRGAEAPLLDDFVMSYLFAQWRHDFVHGWIKVPVTHETQEECLGMAVLDMMRIAKEKDQTPLAVYNSVSYKTFLPKCVRAKIQDYHILTRKRIRYRFRRFIQQFSQCKATARNLKLKYLINLETLQSAFYTEQFEVKESARGPSGEEIFATIIITGNGGIQWSRGKHKESETLTEQDVQLYCDFPDIIDVSIKQANQECSNESRIVTVHKQDGKVLEIELSSLKEALSFVSLIDGYYRLTADAHHYLCKEVAPPAVLENIHSNCHGPISMDFAISKLKKAGNQTGLYVLRCSPKDFNKYFLTFAVERENVIEYKHCLITKNENGEYNLSGTKRNFSNLKDLLNCYQMETVRSDSIIFQFTKCCPPKPKDKSNLLVFRTNGISDVQISPTLQRHNNVNQMVFHKIRNEDLIFNESLGQGTFTKIFKGVRREVGDYGQLHKTEVLLKVLDKAHRNYSESFFEAASMMSQLSHKHLVLNYGVCVCGEENILVQEFVKFGSLDTYLKKNKNSINILWKLGVAKQLAWAMHFLEEKSLIHGNVCAKNILLIREEDRRTGNPPFIKLSDPGISITVLPKDILQERIPWVPPECIENPKNLNLATDKWSFGTTLWEICSGGDKPLSALDSQRKLQFYEDKHQLPAPKWTELANLINNCMDYEPDFRPAFRAVIRDLNSLFTPDYELLTENDMLPNMRIGALGFSGAFEDRDPTQFEERHLKFLQQLGKGNFGSVEMCRYDPLQDNTGEVVAVKKLQHSTEEHLRDFEREIEILKSLQHDNIVKYKGVCYSAGRRNLRLIMEYLPYGSLRDYLQKHKERIDHKKLLQYTSQICKGMEYLGTKRYIHRDLATRNILVENENRVKIGDFGLTKVLPQDKEYYKVKEPGESPIFWYAPESLTESKFSVASDVWSFGVVLYELFTYIEKSKSPPVEFMRMIGNDKQGQMIVFHLIELLKSNGRLPRPEGCPDEIYVIMTECWNNNVSQRPSFRDLSLRVDQIRDSIAA

Variants of: B1
Settings: with cdn1b_human CDKN1B

| effect of a mutation on the interaction | Variant |
| --- | --- |
| increasing interaction strength | V617F |
